Measurements published in the RNAGym collection of RNA variant scans (doi:10.7554/elife.80360).

B1: CPEB3 Ribozyme (parent)
chain: GGGGGCCACAGCAGAAGCGUUCACGUCGCGGCCCCUGUCAGAUUCUGGUGAAUCUGCGAAUUCUGCUGU

Variants of: B1
Assay: self-cleavage, relative activity (ratio to wild type); higher = more cleavage; co-transcriptional

Row | Variant | self-cleavage
1 | GGGGGUCACAGCCGAAGCGUUCACGUCGCGGCCCCUGUCAGAUUCUGGUGAAUCUGCGAAUUCUGCUGU [C6U A13C] | 0.85
2 | GGGGGUCACAGCAGAAGCGUUCACGUCGCGGCCCAUGUCAGAUUCUGGUGAAUCUGCGAAUUCUGCUGU [C6U C35A] | 0.189
3 | GGGGGGCACAGCAGAAGCGUUCACGUCGCGGCCCCUGUCAGAUUCUGGCGAAUCUGCGAAUUCUGCUGU [C6G U49C] | 0.417
4 | GGGGGGCACAGCAGAAGCGUUCACGUCGCGGCCCCUGUCAGAUUCUGGGGAAUCUGCGAAUUCUGCUGU [C6G U49G] | 0.31
5 | GGGGGGCACAGCAGAAGCGUUCACGUCGCGGCCCCUGUCAGAUUCUGGAGAAUCUGCGAAUUCUGCUGU [C6G U49A] | 0.467
6 | GGGGGGCACAGCAGAAGCGUUCACGUCGCGGCCCCUGUCAGAUUCUGGUGAAUCUGCGAAUGCUGCUGU [C6G U62G] | 0.0551
7 | GGGGGGCACAGCAGAAGCGUUCACGUCGCGGCCCCUGUCAGAUUCUGGUGAAUCUGCGAAUACUGCUGU [C6G U62A] | 0.129
8 | GGGGGUCACAGCAGGAGCGUUCACGUCGCGGCCCCUGUCAGAUUCUGGUGAAUCUGCGAAUUCUGCUGU [C6U A15G] | 0.981
9 | GGGGGUCACAGCAGCAGCGUUCACGUCGCGGCCCCUGUCAGAUUCUGGUGAAUCUGCGAAUUCUGCUGU [C6U A15C] | 0.802
10 | GGGGGUCACAGCAGAAGCGUUCACGUCGCGGCCCCUGUCAGUUUCUGGUGAAUCUGCGAAUUCUGCUGU [C6U A42U] | 0.957
11 | GGGGGUCACAGCAGAAGCGUUCACGUCGCGGCCCCUGUCAGCUUCUGGUGAAUCUGCGAAUUCUGCUGU [C6U A42C] | 0.966
12 | GGGGGGCACAGCAGAAGCGUUCACGUCGCGGCCCCUGUCAGAUUCUGGUGAAUCUGCGAACUCUGCUGU [C6G U61C] | 0.0649
13 | GGGGGGCACAGCAGAAGCGUUCACGUCGCGGCCCCUGUCAGAUUCUGGUGAACCUGCGAAUUCUGCUGU [C6G U53C] | 0.108
14 | GGGGGGCACAGCAGAAGCGUUCACGUCGCGGCCCCUGUCAGAUUCUGGUGAAACUGCGAAUUCUGCUGU [C6G U53A] | 0.234
15 | GGGGGUCACAGCAGAAGCGUUGACGUCGCGGCCCCUGUCAGAUUCUGGUGAAUCUGCGAAUUCUGCUGU [C6U C22G] | 0.205
16 | GGGGGUCACAGCAGAAGCGUUCUCGUCGCGGCCCCUGUCAGAUUCUGGUGAAUCUGCGAAUUCUGCUGU [C6U A23U] | 0.999
17 | GGGGGUCACAGCAGAAGCGUUCCCGUCGCGGCCCCUGUCAGAUUCUGGUGAAUCUGCGAAUUCUGCUGU [C6U A23C] | 0.953
18 | GGGGGUCACAGCAGAAGCGUUCACGUCGGGGCCCCUGUCAGAUUCUGGUGAAUCUGCGAAUUCUGCUGU [C6U C29G] | 0.259
19 | GGGGGUGACAGCAGAAGCGUUCACGUCGCGGCCCCUGUCAGAUUCUGGUGAAUCUGCGAAUUCUGCUGU [C6U C7G] | 0.198
20 | GGGGGUAACAGCAGAAGCGUUCACGUCGCGGCCCCUGUCAGAUUCUGGUGAAUCUGCGAAUUCUGCUGU [C6U C7A] | 0.254

Row | Variant | self-cleavage
21 | GGGGGGCACAGCAGAAGCGUUCACGUCGCGGCCCCUGUCAGAUUCUGGUGAAUCUGCGAAUUCUGCGGU [C6G U67G] | 0.374
22 | GGGGGGCACAGCAGAAGCGUUCACGUCGCGGCCCCUGUCAGAUUCUGGUGAAUCUGCGAAUUCUGCCGU [C6G U67C] | 0.344
23 | GGGGGUCACAGCAGAGGCGUUCACGUCGCGGCCCCUGUCAGAUUCUGGUGAAUCUGCGAAUUCUGCUGU [C6U A16G] | 0.986
24 | GGGGGUCACAGCAGAUGCGUUCACGUCGCGGCCCCUGUCAGAUUCUGGUGAAUCUGCGAAUUCUGCUGU [C6U A16U] | 0.841
25 | GGGGGUCACAGCAGACGCGUUCACGUCGCGGCCCCUGUCAGAUUCUGGUGAAUCUGCGAAUUCUGCUGU [C6U A16C] | 0.12
26 | GGGGGGCACAGCAGAAGCGUUCACGUCGCGGCCCCUGUCAGAUUCUGGUGAAUCUGCGAAUUCUGCUGC [C6G U69C] | 0.797
27 | GGGGGGCACAGCAGAAGCGUUCACGUCGCGGCCCCUGUCAGAUUCUGGUGAAUCUGCGAAUUCUGCUGG [C6G U69G] | 0.639
28 | GGGGGGCACAGCAGAAGCGUUCACGUCGCGGCCCCUGUCAGAUUCUGGUGAAUCUGCGAAUUCUGCUGA [C6G U69A] | 0.589
29 | GGGGGUCACAGCAGAAGCGUUCACGUCGCGGCCCCUGUGAGAUUCUGGUGAAUCUGCGAAUUCUGCUGU [C6U C39G] | 0.899
30 | GGGGGGCACAGCAGAAGCGUUCACGUCGCGGCCCCUGUCAGAUGCUGGUGAAUCUGCGAAUUCUGCUGU [C6G U44G] | 0.183
31 | GGGGGGCACAGCAGAAGCGUUCACGUCGCGGCCCCUGUCAGAUACUGGUGAAUCUGCGAAUUCUGCUGU [C6G U44A] | 0.224
32 | GGGGGGCACAGCAGAAGCGUUCACGUCGCGGCCCCUGUCAGAUCCUGGUGAAUCUGCGAAUUCUGCUGU [C6G U44C] | 0.281
33 | GGGGGUCCCAGCAGAAGCGUUCACGUCGCGGCCCCUGUCAGAUUCUGGUGAAUCUGCGAAUUCUGCUGU [C6U A8C] | 0.941
34 | GGGGGUCGCAGCAGAAGCGUUCACGUCGCGGCCCCUGUCAGAUUCUGGUGAAUCUGCGAAUUCUGCUGU [C6U A8G] | 0.813
35 | GGGGGUCUCAGCAGAAGCGUUCACGUCGCGGCCCCUGUCAGAUUCUGGUGAAUCUGCGAAUUCUGCUGU [C6U A8U] | 1.01
36 | GGGGGGCACAGCAGAAGCGUUCACGUCGCGGCCCCGGUCAGAUUCUGGUGAAUCUGCGAAUUCUGCUGU [C6G U36G] | 0.105
37 | GGGGGGCACAGCAGAAGCGUUCACGUCGCGGCCCCAGUCAGAUUCUGGUGAAUCUGCGAAUUCUGCUGU [C6G U36A] | 0.0334
38 | GGGGGGCACAGCAGAAGCGAUCACGUCGCGGCCCCUGUCAGAUUCUGGUGAAUCUGCGAAUUCUGCUGU [C6G U20A] | 0.0487
39 | GGGGGGCACAGCAGAAGCGUGCACGUCGCGGCCCCUGUCAGAUUCUGGUGAAUCUGCGAAUUCUGCUGU [C6G U21G] | 0.0354
